The results in this text go back to PMC9456297 (International Journal of Molecular Sciences, 2022).

As a reminder, the Kd is the free concentration of one partner at which half of the binding sites on the other are occupied at equilibrium, for simple one-to-one binding. For orientation: IC50 means the concentration at which inhibition is half-maximal. Read a high IC50 as a need for much substance.

In experiment [1] the target is AviTag-3SM5 (biotinylated, c-myc-tagged 3SM5 VH). As to the kind of experiment: BLI.
Experiment [2] addresses AviTag-238D2 (biotinylated, c-myc-tagged 238D2). As to the kind of experiment: BLI. (Biolayer interferometry detects binding as a change in optical thickness at a sensor tip.)
Experiment [3] addresses T1, SNAP-tagged hCXCR4 labelled with Lumi4-Terbium (human, UniProt P61073 1-352, Lumi4-Terbium on the SNAP tag).
T1 construct: also called SNAP-CXCR4; Terbium-linked SNAP-tagged CXCR4
Nature of the experiment: AlphaScreen or HTRF. Particulars: one partner purified. A general note: Bead proximity is the source of the signal in Alpha formats.

T1 sequence (P61073 whole entry): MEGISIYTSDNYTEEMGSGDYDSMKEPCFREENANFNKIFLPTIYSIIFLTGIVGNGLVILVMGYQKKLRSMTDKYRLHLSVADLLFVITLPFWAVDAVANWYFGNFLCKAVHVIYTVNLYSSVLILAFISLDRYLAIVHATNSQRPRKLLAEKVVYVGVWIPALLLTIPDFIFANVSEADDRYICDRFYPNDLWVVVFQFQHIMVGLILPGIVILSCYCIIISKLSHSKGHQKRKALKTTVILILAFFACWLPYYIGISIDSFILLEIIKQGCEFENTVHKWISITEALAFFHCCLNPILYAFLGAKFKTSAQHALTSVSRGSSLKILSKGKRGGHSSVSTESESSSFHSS

Turning to “Influenza A H1N1 (A/SOLOMON ISLANDS/3/2006): hemagglutinin H1 as a fusion protein with the neuraminidase N1”, the Kd in experiment [1] turned out to be 236 nM; in experiment [2], 119 nM.

B1: 238D2 nanobody (bacterially produced, c-myc- and His-tagged) (VHH)
VHH: EVQLVESGGGLVQTGGSLRLSCAASGFTFSSYAMSWVRQAPGKGLEWVSGIKSSGDSTRYAGSVKGRFTISRDNAKNMLYLQMYSLKPEDTAVYYCAKSRVSRTGLYTYDNRGQGTQVTVSS
notes: also called anti-CXCR4 Nb
In experiment [3], B1 showed a concentration for half-maximal inhibition (IC50) of 58.4 nM.

B2: 3SM5 VH domain (bacterially produced, c-myc- and His-tagged) (domain or fragment)
VH: MEVQLVQSGAEVKKPGASVKVSCKASGYTFTDYHINWVRQAPGQGLEWMGWIHPNSGDTNYAQKFQGWVTMTRDTAISTAYMEVNGLKSDDTAVYYCARGGLEPRSVDYYYYGMDVWGQGTTVTVSS
notes: also called VH of CH65
For B2, in experiment [3], half-maximal inhibition (IC50) required 69.1 nM.

B3: 4N1H VHH (bacterially produced, c-myc- and His-tagged) (VHH)
VHH: EVQLQESGGGLVQAGASLKLSCAASGRTFSSYAMGWFRQAPGKEREFVAAISRSGGDTKYADSVKGRFAISRDNDKNTVWLRMNSLKPEDTAVYYCAATTYASLSDTYIGEHIYDDWGQGTQVTVSS
notes: also called cAB-F11N
B3: the half-inhibitory concentration (IC50) in experiment [3] was 39.8 nM.
